Results reported in US20100223690A1, “COMPOSITIONS AND METHODS FOR MODULATING PLANT DISEASE RESISTANCE AND IMMUNITY” (Washington State University, published 2010).
Changes are numbered by the printed parent chain. Each block holds one molecule with its values, some of them ahead of it.

Columns and labels:
[1] = target: Ca2+/calmodulin (endogenous, in Arabidopsis plants) (Arabidopsis thaliana); test: cell-based or functional assay
[2] = target: T1, AtSR1 (CAMTA3) CG-1 DNA-binding domain (Arabidopsis thaliana, UniProt Q8GSA7 SEQ:1-153); test: EMSA; Ca2+/CaM-independent; settings: tags: 6xHis (pET32a)
T1 sequence: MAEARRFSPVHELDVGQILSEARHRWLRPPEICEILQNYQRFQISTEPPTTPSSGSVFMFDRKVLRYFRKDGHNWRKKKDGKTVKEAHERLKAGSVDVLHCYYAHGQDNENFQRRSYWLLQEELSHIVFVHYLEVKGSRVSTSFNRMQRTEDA
Procedure: (§1) The E. coli strain BL21(DE3)/pLysS carrying the above pET32a derived plasmids for expression of recombinant proteins of the wild-type and mutated versions of AtSR1, AtSR6 or ABF1 were induced with 0.5 mM IPTG for 3 hours. 6×His tagged recombinant proteins were purified using Ni-NTA agarose affinity beads (Qiagen) as described by the manufacturer. Recombinant AtSR1 or AtSR6 covering CG-1 domain, or ABF1 was used for EMSA³² to detect its interaction with WT or mutated EDS1 promoter fragments. Recombinant AtSR1 containing CaMBD was used for CaM overlay assay³⁸.

[3] = target: T1, AtSR1 (CAMTA3) CG-1 DNA-binding domain; test: EMSA; binding is ACGCGT-dependent; settings: tags: 6xHis (pET32a)
Procedure: as §1

level of SA in complemented plants [1]: 60 % of WT
Molecule: full-length AtSR1 I909V fused to Flag tag, expressed from 35S::AtSR1I909V in atsr1-1 plants (from UniProt Q8GSA7 1-1032)

level of SA in complemented plants [1]: 60 % of WT
Molecule: full-length wild-type AtSR1 fused to Flag tag, expressed from 35S::AtSR1 in atsr1-1 plants (from UniProt Q8GSA7 1-1032)

B1: EDS1P probe (-762 to -731) (dsDNA)
DNA 1: GTAAAAGTCGAATGTGACGCGTCTTGCCGAAC
DNA 2: GTTCGGCAAGACGCGTCACATTCGACTTTTAC
binding result [2]: binds

B2: eds1p mutant probe (dsDNA)
DNA 1: B1 DNA 1 with G19C
DNA 2: B1 DNA 2 with C14G
modifications: [19 (G>C)]
binding result [3]: no binding
